{"source": "paper PMC3505971", "about": "(Nucleic Acids Research, 2012)", "binders": {"B1": {"name": "A27 (ssRNA)", "RNA": "AAAAAAAAAAAAAAAAAAAAAAAAAAA"}, "B2": {"name": "A6G (ssRNA)", "RNA": "AAAAAAG"}, "B3": {"name": "A16 (ssRNA)", "RNA": "AAAAAAAAAAAAAAAA"}, "B4": {"name": "(AU)3A (ssRNA)", "RNA": "AUAUAUA"}, "B5": {"name": "(AC)3A (ssRNA)", "RNA": "ACACACA"}, "B6": {"name": "(GGA)9 (ssRNA)", "RNA": "GGAGGAGGAGGAGGAGGAGGAGGAGGA"}, "B7": {"name": "Staphylococcus aureus Hfq (natural protein)", "chain": "MIANENIQDKALENFKANQTEVTVFFLNGFQMKGVIEEYDKYVVSLNSQGKQHLIYKHAISTYTVETEGQASTESEE"}, "B8": {"name": "AU5G (ssRNA)", "RNA": "AUUUUUG"}, "B9": {"name": "(GGA)2 (ssRNA)", "RNA": "GGAGGA"}, "B10": {"name": "(AA)3A = A7 (ssRNA)", "RNA": "AAAAAAA"}, "B11": {"name": "U6 (ssRNA)", "RNA": "UUUUUU"}, "B12": {"name": "(AG)3A (ssRNA)", "RNA": "AGAGAGA"}}, "key": {"Ec Hfq": {"target": "Ec Hfq (Escherichia coli, UniProt P0A6X3 1-102)", "assay": "fluorescence polarization"}, "Sa Hfq [1]": {"target": "T1, Sa Hfq (Staphylococcus aureus, UniProt A0A0H3JV59 1-77)", "assay": "fluorescence polarization"}, "Sa Hfq [2]": {"target": "T1, Sa Hfq", "assay": "fluorescence polarization", "remark": "listed apart in the source"}, "Sa Hfq(K33A)": {"target": "Sa Hfq(K33A) (Staphylococcus aureus, UniProt A0A0H3JV59 1-77, K33A)", "assay": "fluorescence polarization"}, "crystal structure": {"target": "the molecule itself", "assay": "crystal structure"}}, "data": [{"binder": "B1", "values": [{"measurement": "Kd", "setting": "Ec Hfq", "value": "0.85 ± 0.08", "unit": "nM"}, {"measurement": "Kd", "setting": "Sa Hfq [1]", "value": "109 ± 13", "unit": "nM"}]}, {"binder": "B2", "values": [{"measurement": "binding result", "setting": "Sa Hfq [2]", "value": "binds"}]}, {"binder": "B3", "values": [{"measurement": "Kd", "setting": "Ec Hfq", "value": "0.4 ± 0.5", "unit": "nM"}, {"measurement": "Kd", "setting": "Sa Hfq [1]", "value": "4.2 ± 0.5", "unit": "nM"}]}, {"binder": "B4", "values": [{"measurement": "Kd", "setting": "Sa Hfq(K33A)", "value": "309 ± 40.2", "unit": "nM"}, {"measurement": "Kd", "setting": "Sa Hfq [1]", "value": "2.7 ± 2.3", "unit": "nM"}]}, {"binder": "B5", "values": [{"measurement": "Kd", "setting": "Sa Hfq [1]", "value": "5.8 ± 7.3", "unit": "nM"}]}, {"binder": "B6", "values": [{"measurement": "Kd", "setting": "Sa Hfq [1]", "value": 350, "unit": "nM"}]}, {"binder": "B7", "values": [{"measurement": "stoichiometry N", "setting": "crystal structure", "value": 6}]}, {"binder": "B8", "values": [{"measurement": "binding result", "setting": "Sa Hfq [2]", "value": "binds"}]}, {"binder": "B9", "values": [{"measurement": "Kd", "setting": "Sa Hfq [1]", "value": 450, "unit": "nM"}]}, {"binder": "B10", "values": [{"measurement": "Kd", "setting": "Sa Hfq(K33A)", "value": "406 ± 112", "unit": "nM"}, {"measurement": "Kd", "setting": "Sa Hfq [1]", "value": "19.5 ± 6.4", "unit": "nM"}]}, {"binder": "B11", "values": [{"measurement": "Kd", "setting": "Sa Hfq(K33A)", "value": "72.7 ± 21.9", "unit": "nM"}, {"measurement": "Kd", "setting": "Sa Hfq [1]", "value": "69.8 ± 7", "unit": "nM"}]}, {"binder": "B12", "values": [{"measurement": "Kd", "setting": "Sa Hfq(K33A)", "value": "11.9 ± 3", "unit": "nM"}, {"measurement": "Kd", "setting": "Sa Hfq [1]", "value": "3.5 ± 0.3", "unit": "nM"}]}]}
